Experimental data: a protein production outcome set (Wang et al. 2014)

Assay: label from the status in PepcDB records
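Further: failed if final PepcDB status was selected cloned or expressed and not failed if soluble or beyond.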

With “MTDTPVPSEATASGWRRALPVIISLAILAMALHALSSQFTDHGYRQIRQAFRALGAGQIALTLLLGLSSYACLVGFDWVGLKRTGKRLHPARVGITAFMAHAVGQTLGFAALTGGAVRLRGYGSVGLTLAEIGQVVLMSTLGFIFGAWVLLGIALMLEPEAAARALPIAAEGIRIAGIALLAGYLAMLVLVGRHGREFGIRSHRFWLPDRTTVLGVTALSVVELGLAAAAFYVLLPPDPGTGYFGFIGIWLVAVVAGLISTVPAGLGVFEWSLLKLLPHVTPAAVLAAALAYRVTYYIVPLLISVAMAAATGLRAPVRASASTARTVWKTLRPWLPQILALAVFAVGAALVIDGTLPTPRARQEVAPLPLIETSHLLVSLGGMLLLLIGQGLQRRSHSAWVLALGVCVLLPPLSLLRGSHISVSLSAALAAVALWAARREFYRQGALLDEAWSWRWLSNLGLVLVATFWLLFFVYSHVEYSNDLWWQFATSANAPRALRALLILCVGVILFGTARLLRGGRRPMPPADAQALQALAPVLASSADTQACLALTGDKAFLRDEKGLGFVMMQRYGGSLISMGDPVGPPEVARALIWRFREEADHMGLRPVFYQVGEKYWQTYLDMGLTLVKLGEEAIVPLEGFTLEGRDRADLRQAWNRGKRGGLSFRMLQPEQVDAVMAELGEVSEQWLDEKAGEEKGFSLGSFDPDYLRRFPMAVAEAEGKIVAFANVWCAPAGGELSVDLMRHSAQAPKGTMDFLFIELFLWGHANGYTRFSLGMAPLSGLAEHRLAGRWNRFASLVARHGERFYGFSGLRRFKSKFAPTWRPRYLVAPGGMHLPAALLDVTRLISVDPGRQD” as the sequence, how does the protein production read?
Its protein production is “failed”.

Which protein production does the source give for “MSLQWECWPSLPCWRCFAASGRITLSIKRFTQNSRRHDMKITKINAIPLSYRLPEGKTVTMGVGSTIKRDAIIIRVETSEGITGYGEAHPGRSPGAITSLIHNTIAPMLIGMKATDCVGAWQRVHRMQLSSHGLGAGAALAISGIDMALWDIRGKAANMPLYELLGGSKRRIPAYAGGIALGYQPKESLAEEAQEYIARGYKALKLRIGDAARVDIERVRHVRKVLGDEVDILTDANTAYTMADARRVLPVLAEIQAGWLEEPFACNDFASYREVAKITPLVPIAAGENHYTRFEFGQMLDAGAVQVWQPDLSKCGGITEGIRIAAMASAYRIPINAHSSATGLNHAATIHFLAATENAGYFEACVSKFNPFRDMFGTSFEIGADGCVEPPDAPGLGIEVDESIFEKYPAVDGPGYVVKFEGHHHHHH” here?
The protein production was “not failed”.

For “MDTMRDRFAPVVSRLLDEDPRVVVVLAEIGKDGFTEARRRHPDRVINVGIREQLLVGAGAGLALTGLRPVLHTFASFLVERPFEQVKLDLGHQDVGAVLVSAAASFDWPAGGYTHMSPGDVALLDTLDGWTMHVPGHPDEAETLLRHAVAAGDDKVYVRLSVQSNARRRAVDGERFLTVREGRAGVVVAVGPLLDPVLEATEGLDVTVLYATTVRPFDAVALRRATETAGTDVVLVEPYLAGTSTAAANDALHDVPHRVLGLGVGRPELRRYGSVDEHMAAHGLDAGSLRQRIAEFAGAPARA”, which protein production is on record?
Its protein production is “failed”.

For “MNDAAVWVPVPAMFYWGWLVPLIFGTIFGWRYHRDKVRLGNGIWFSLFFYSFLTMLAITILGSNIHWLIIISGALFVLLILLIGLIFTLQAFLLLWNAWIMWRHESHTLANMLTLYLGLGILVLPFLGNLLSSHVPQPVSYFLTLFPNLVIFYLGFLFYNYLTMLTIYQFNWPRLRQDYIIVLGDGWAETQSKTTFQNMQFSKQLIAQGPAKNPRTIFVTNKYGRLQI”, which protein production is on record?
The protein production was “failed”.

With “MSLMLSHNPIVEPFALAHATIVTGDKAGTILRNMTIVVGADGRIEQVAPSIETSIPAEYHYLDGTGKIVMPGLINAHTHLFSQGKPLNPKLATPKGQRMVATFAHSPLGKPYMAATVKHNATTLLESGVTTIRTLGDVGYEVVTLRDQIDAGQILGPRILASGPLMAIPEGHGAPLIALTSGTPEEARTAVAQNLKAGVNAIKIAATGGVTDAQEIGEAGSPQMSVEQMRAICDEAHQYGVIVGAHAQSPEGVRRSLLAGVDTIEHGSVLDDELIGMFRHNPNALRGYSALIPTLSAGLPLTLLGQDVTGITDIQLENSKNVVGGMVSGARQAHEAGLMIGVGTDTGMTFVPQYATWRELELLVAYAGFSPAEALHAATAVNASILGVDAETGSLEVGKSADLLVLNANPLDDLRALEHPALVIAAGHPVWRPGPKRFADIDALLDEAYAEGHHHHHH” as the sequence, how does the protein production read?
The protein production was “not failed”.

Which protein production does the source give for “MQIQQMLENRIEELEMKIAFQEQLLDELNHALVQQQFDIDKMQVQLRYMANKLKDFQSSNIASQSEETPPPHY” here?
Its protein production is “not failed”.

With “MSSKMVKSSEIVGKLNLRAHQEGGFFAETFRDSSVFLSTSQLPPTFKVDRAVSTSIYFLLPSGSVSRLHRIPMAETWHFYLGEPLTVVELYDDGKLKFTCLGPDLFEGDQKPQYTVPPNVWFGSFPTKDVHFSQDGALLKAEARDSENHFSLVGCTCAPAFQFEDFELAKRSDLLSRFPQHESLITMLSYPE” as the sequence, how does the protein production read?
Its protein production is “failed”.

For “LELLEALSLPVWIFDIDHRRVFWANEAALQVWGAGSLLELQTRDMARDMSVSVAQRLAQYQQDFEREGASFVESWTLYPNGRPSVLKVKFRGIRVNGRMLMFCEAQN”, which protein production is on record?
The protein production was “failed”.

For “KRQKIHLGDRSQKCSKCGIIFIRRSTLSRRKTPMCEKCRKDSCQEAALNKDEGNESGKKT”, which protein production is on record?
Its protein production is “not failed”.

For “DMLLVDEMKRGMAQGNASGKHLIILHTKGSHFNYTQRYPRSFAQWKPECVGVDNKCSKAELINSYDNSVTYVDHFIVSVLDQLRDKKAIVFYAADHGESINEREHLHGTPRKMAPPEQFRVPMMVWMSDKYLENPDHAAAFAHLQQQAAMKVPRRHVELYDTIMGCLGYTSPDGGINENNNWCRWKK”, which protein production is on record?
Its protein production is “failed”.

With “MDCKKFIQMVEEKKRRVLEKQEAPLKWEQKLEAAANAKADTETKVKRSKGPKRKQRAASESSSESDSSSEVRRKSRRSHNKHRRHAHSDSDDSDRRKEKKSRRQKRRSLSPSDDSTGDYESGSEDELRMKIKHHRRHKWHSSRKTCDDDSTEDVRRKHLKHHRRSEVVTSSDSEEESGRRRRGKYHRHNRGSASSSGSEEDSGKSMKRRQHKRHRLAESSSEEDGAMRRTRHHKHGRDSASESDGRR” as the sequence, how does the protein production read?
Its protein production is “failed”.

With “MARLIVNALVSVPLAEIEIGFVRSGGAGGQNVNKLATAAHLRFDIAASSLPETCKTRLLDHRDRRMTAEGIIVIKAQRFGTQEKNREDALARLRGLILQALAQRRPRKPTRPTLAAKKKRLDEKTRHGEIKRLRRRIGDLEHHHHHH” as the sequence, how does the protein production read?
The protein production was “failed”.

With “MAEGKDRNFVTALARGLDVLRSFRPGEVLLTNTDLSERTGLPKPTVSRLTYTLCQLGYLVQDRQSGAYRLGVGVLQLGMGVLAGLDICDRAAEVLRGLRTGANPYITAALGEVHRAEVIYVAVSRSRENVSLSMHVGSRLPLFRSAIGRAILVGMEAEEREAAIAAGMRDLGVPEAELRSQIARAVEEYAVRGYCTGYGDWRADVNGIAVPVLSLGGARLHGLNLGGPSFHVTQEELERVFAPLLIEAGRSLGMVP” as the sequence, how does the protein production read?
The protein production was “failed”.

For “MDKLKVAELFAGVGGFRLGLENTKEKIFDVTWANQWEPSKKIQHAFDCYNSRFITGEHVNKDIALISDEEIANTKADMVVGGFPCQDYSVARSLSGELGIQGKKGVLFWQIIRFIQNTYPKYLLLENVDRLLKSPSSQRGRDFGVMLSTLNELGYNVEWRVINAADYGNAQRRRRVFIFGYKQDLEHHHHHH”, which protein production is on record?
The protein production was “not failed”.

For “QIRMIAAIAHMGGHDLKDDRVKAMVYACLTGNAAKDILKDIGIVVGRKLTENAIKSISGKTITKINQAVGFRLLTKFGEKG”, which protein production is on record?
The protein production was “failed”.

Which protein production does the source give for “MAKRGREAKSAERTRQLAESEARLRLMADAAPFPLAMNRLAGGELIYANARAEELFGARLRPDRPLRVQDFYAEPAEREKVARALLEGRAVRDREVRLRDAGGRPFWALVSCELVQSGETWYVINGVNDISERKRLEQSLQDANAALRSHLREIELLQQGLREQALRDPLTGLFNRRHLDDILPRVLAHMLALHREVAVLMVDADHFKRINDTYGHRCGDAVLTALGACLSDHFRSGDIVCRYGGEEFFVLLPGATLEAAYAKAEGLRRAVGERPMEALGHSLAVTLSIGLALCPLHGSDAESVVRAADEALYQAKRQGRDRVCVAARLQSLLS” here?
Its protein production is “failed”.

Which protein production does the source give for “MQAGPSAAVENKIITLVESILAQNGIAGGIERDTTFADAGLTSMEMVNLMLAVEAEFDMTLPQSDITPENFTSAATVAQLVSRRQHAQAALEHHHHHH” here?
The protein production was “not failed”.

Which protein production does the source give for “MDFNDSAQAIILNVGGEKNINSLIHCSTRLRFTLNDFAKADLEKLKTVDGVLGAVIAGGQCQVIIGNDVVEMFDAVQALLGNSTQQNTARGPKQSWGKVVLDFIIGVFQPLVPAIAGGGILKAVLMLLAMFGWISDKSQTYQILNLVGGAPLYLLPILVAITTAQKLKVNPLVAVSTVGVLILPDLVAMLTKGTTLFGLHVTNVTYSSQVFPAILCVLFYALMERFFTKYSPKPIRIFFVPMMSMLITAPITLLFLGPLGYVVGEGFVSVILFLNTHLGWVATALLAGVLPFMVATGMHKPMIPYVVSTFSTVGKESLYLPASLAHNISESGTCFAITLRTKDTKLRAVALSAGISALFGITEPALYGVTLQHKRALISVITGGVIGGAYVGIAGLSGFTIVGPGLASLPMFVDKSNPANLIHALIGFGISFVVSFVIGLIIWKNDEEISSASDTGEATTTVVAEDLMAPVAGKILSLADVPDDVFSQGLIGQGIAVEPSEGSLIAPTDGTIEMVYETKHALGMRTDNGAELLFHIGLDTVQLNGKYFESHVQVGQHVQAGELLETFDVAKIKAAGYNPITMMVVTNQDSYTVAVDESNETLDNQSVMNIAKLGV” here?
The protein production was “failed”.

Which protein production does the source give for “MDRNEVRHAWDSVSETYAERRDPTGSDAALLEDLLERLPEAPTVLDVGCGDGARTLANLPPRSVGLDFSRAGLDLAAETVPDSRLVQGDMGSLPVTTDSVDAITAYHAVFHVQRDQHPEVYREFARVLRPGGTVLMTLPSGQFETVRRGWMGGSMFFSAPGRRATLDQLADAGFTETETVTATDPLGSDSEFVFATLADALEHHHHHH” here?
Its protein production is “not failed”.

For “MAVSNDITFADYFYQWYEVNKLPHVSESTKRHYESAYKHIKDHFRHKLLKDIKRTEYQKFLNEYGLTHSYETIRKLNSYIRNAFDDAIHEGYVIKNPTYKAELHASVPAKTELEHHHHHH”, which protein production is on record?
The protein production was “not failed”.

For “MKLAEALILRADLQKELMSLKNRINQNLLVQEGEKPSENPYTLYDEILLKVSELEGLILKINKTNSNYITSNNESISDLIVKRDMLGKKISILKEIAEEATVKVNRYSQTEIKIFSAMKVDQLQREINKYSKEYRELDTKLQGLNWTIDLME”, which protein production is on record?
The protein production was “failed”.

With “MQLIRGFHNLANYDALKKGCVLTIGNFDGVHIGHQNILARLCDQSLAIGLPSVVMLFEPQPREFFAKNSQNQTASALSNAVPARLMRLRDKLKYLAEMGVDFVLCVNFNQKFAKYSAEDFITELLVKKLKVRYLSVGDDFRFGIERRGNFEMLRNAGLTHRFAVEESHTHRFDTLRISSSLIRQALQQNDLALVENLLGKPYSIRGRVAHGNKLGRTIGFPTANIMLNRLVTPIQGVFIVEVQTIYGRFNGIANVGNRPTINGTKPLLEVHIFDFNNAIYHQIIEVIFIKKIRDELKFASFTLLKEQIEKDCQQAVEFFNQLPKTK” as the sequence, how does the protein production read?
The protein production was “failed”.

For “MRQFQRLANDGLKSCPPKSGCPMHILFIGYGKTSQRIAKHLFAQGHQITAVSRHPKPQDFVTHLTQDIHQLNLDQCSPIDWVYVLLAPENSDAQSYKHTYLDSVQPIARALATHPVKRVVVVSSTRVYGQQQAGEIVNDQTIAKPVDQQGAYLLEMEEAWQNAFAEHCTIIRPSGIYGNSISRMVKLAKNTTEYPVIHYSNRIHIEDLARFLAFMTQMPCCQPSYLISDGHPYPLHEIILWFQKQLALPQLVLQSDSVTGKRIVPVNFLTTGFELQAEDCFEIYGNLLRSVDT”, which protein production is on record?
The protein production was “failed”.

With “MATRRLTDAFLLLRNNSIQNRQLLAEQVSSHITSSPLHSRSIAALADDRMALVSGISLDPEAAIGVTKRPPPKWVDGVDEIQYDVGRIKQKMKELASLHDKHLNRPTLDDSSEEEHAIEITTQEITQLFHRCQRAVQALPSRARACSEQEGRLLGNVVASLAQALQELSTSFRHAQSGYLKRMKNREERSQHFFDTSVPLMDDGDDNTLYHRGFTEDQLVLVEQNTLMVEEREREIRQIVQSISDLNEIFRDLGAMIVEQGTVLDRIDYNVEQSCIKTEDGLKQLHKAEQYQKKNRKMLVILILFVIIIVLIVVLVGVKSR” as the sequence, how does the protein production read?
The protein production was “failed”.
